What was measured:
[1] = target: HLA-A*02:01 (Homo sapiens, UniProt P04439, D140Y/D185E/D98H/E176V/E277Q/G131W/G231S/I119V/I121R/I166T/I218V/L300P/L318F/N151K/N90K/P208A/P217A/Q86G/Q94H/R138H/R169H/T345S); assay: MHC binding assay (UV-ligand exchange, beta2m ELISA); settings: binding to HLA-A*02:01, β2m ELISA
Method in brief: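 Peptide-MHC complexes made by UV-ligand exchange of a UV-cleavable peptide for test peptide; exchange yield measured by β2m ELISA on streptavidin-coated plates with samples diluted 100-fold, HRP anti-β2m and TMB read at 450 nm. Refolded HLA-A*02:01/MLA-001 monomers (15-500 ng/ml) served as standards.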

[2] = system: CD8+ T cells; assay: In vitro immunogenicity: T-cell priming with aAPCs loaded with peptide/MHC complexes and anti-CD28, pMHC multimer readout; format: cell-based, human; settings: for Wells positive [%]: in vitro immunogenicity, HLA-A*02 restricted peptides, percentage of positive wells and donors (among evaluable); for in vitro immunogenicity: donors: positive donors; for in vitro immunogenicity: donors / in vitro immunogenicity: wells: CD8+ T cells of healthy HLA-A*02 donors, three stimulation cycles, multimer staining; for in vitro immunogenicity: wells: positive wells
Description: In order to obtain information regarding the immunogenicity of the TUMAPs of the present invention, the inventors performed investigations using an in vitro T-cell priming assay based on repeated stimulations of CD8+ T cells with artificial antigen presenting cells (aAPCs) loaded with peptide/MHC complexes and anti-CD28 antibody.
In order to perform in vitro stimulations by artificial antigen presenting cells loaded with peptide-MHC complex (pMHC) and anti-CD28 antibody, the inventors first isolated CD8+ T cells from fresh HLA-A*02 leukapheresis products via positive selection using CD8 microbeads (Miltenyi Biotec, Bergisch-Gladbach, Germany) of healthy donors obtained from the University clinics Mannheim, Germany, after informed consent. PBMCs and isolated CD8+ lymphocytes were incubated in T-cell medium (TCM) until use consisting of RPMI-Glutamax (Invitrogen, Karlsruhe, Germany) supplemented with 10% heat inactivated human AB serum (PAN-Biotech, Aidenbach, Germany), 100 U/ml Penicillin/100 μg/ml Streptomycin (Cambrex, Cologne, Germany), 1 mM sodium pyruvate (CC Pro, Oberdorla, Germany), 20 μg/ml Gentamycin (Cambrex). 2.5 ng/ml IL-7 (PromoCell, Heidelberg, Germany) and 10 U/ml IL-2 (Novartis Pharma, Nürnberg, Germany) were also added to the TCM at this step. Generation of pMHC/anti-CD28 coated beads, T-cell stimulations and readout was performed in a highly defined in vitro system using four different pMHC molecules per stimulation condition and 8 different pMHC molecules per readout condition.
The purified co-stimulatory mouse IgG2a anti human CD28 Ab 9.3 (Jung et al., 1987) was chemically biotinylated using Sulfo-N-hydroxysuccinimidobiotin as recommended by the manufacturer (Perbio, Bonn, Germany). Beads used were 5.6 μm diameter streptavidin coated polystyrene particles (Bangs Laboratories, Illinois, USA).
pMHC used for positive and negative control stimulations were A*0201/MLA-001 (peptide […] (SEQ ID NO. 289) from modified Melan-A/MART-1) and A*0201/DDX5-001 ([…] from DDX5, SEQ ID NO. 290), respectively.
800,000 beads/200 μl were coated in 96-well plates in the presence of 4×12.5 ng different biotin-pMHC, washed and 600 ng biotin anti-CD28 were added subsequently in a volume of 200 μl. Stimulations were initiated in 96-well plates by co-incubating 1×10^6 CD8+ T cells with 2×10^5 washed coated beads in 200 μl TCM supplemented with 5 ng/ml IL-12 (PromoCell) for 3 days at 37° C. Half of the medium was then exchanged by fresh TCM supplemented with 80 U/ml IL-2 and incubating was continued for 4 days at 37° C. This stimulation cycle was performed for a total of three times. For the pMHC multimer readout using 8 different pMHC molecules per condition, a two-dimensional combinatorial coding approach was used as previously described (Andersen et al., 2012) with minor modifications encompassing coupling to 5 different fluorochromes. Finally, multimeric analyses were performed by staining the cells with Live/dead near IR dye (Invitrogen, Karlsruhe, Germany), CD8-FITC antibody clone SK1 (BD, Heidelberg, Germany) and fluorescent pMHC multimers. For analysis, a BD LSRII SORP cytometer equipped with appropriate lasers and filters was used. Peptide specific cells were calculated as percentage of total CD8+ cells. Evaluation of multimeric analysis was done using the FlowJo software (Tree Star, Oreg., USA). In vitro priming of specific multimer+CD8+ lymphocytes was detected by comparing to negative control stimulations.

| Substance | Peptide exchange (MHC class I binding score, peptide exchange yield) [1] | Wells positive [%] [2] | in vitro immunogenicity: donors [2] | in vitro immunogenicity: wells [2] |
| --- | --- | --- | --- | --- |
| 39 (YLEDGFAYV; listed as Homo sapiens) [compound 39] | +++ (≥50 = +++) | ++++ (>=70% = ++++) | – | – |
| 121 (ALYVQAPTV; listed as Homo sapiens) [compound 121] | ++ (≥20% = ++) | + (<20% = +) | – | – |
| 4 (VLFGELPAL; listed as Homo sapiens) [compound 4] | +++ (≥50 = +++) | + (<20% = +) | – | – |
| 14 (YTFSGDVQL; listed as Homo sapiens) [compound 14] | +++ (≥50 = +++) | + (<20% = +) | – | – |
| 17 (GLLPSAESIKL; listed as Homo sapiens) [compound 17] | ++++ (≥75% = ++++) | + (<20% = +) | – | – |
| 97 (KLFEKSTGL; listed as Homo sapiens) [compound 97] | +++ (≥50 = +++) | + (<20% = +) | – | – |
| 77 (ALYGNVQQV; listed as Homo sapiens) [compound 77] | +++ (≥50 = +++) | + (<20% = +) | – | – |
| 27 (GLLGKVTSV; listed as Homo sapiens) [compound 27] | +++ (≥50 = +++) | + (<20% = +) | – | – |
| 82 (ILAEEPIYIRV; listed as Homo sapiens) [compound 82] | +++ (≥50 = +++) | +++ (50%-69% = +++) | – | – |
| 236 (KMSELQTYV; listed as Homo sapiens) [compound 236] | +++ (≥50 = +++) | + (<20% = +) | – | – |
| 66 (AMFPDTIPRV; listed as Homo sapiens) [compound 66] | ++ (≥20% = ++) | + (<20% = +) | – | – |
| 287 (KIQEILTQV; listed as Homo sapiens) [compound 287] | – | – | +++ (50%-69% =+++) | + (<20% = +) |
| 288 (SLYKGLLSV; listed as Homo sapiens) [compound 288] | – | – | ++++ (>= 70% = ++++) | ++ (21%-49% = ++) |
| 114 (LLFPSDVQTL; listed as Homo sapiens) [compound 114] | ++ (≥20% = ++) | – | – | – |
| 87 (KLLSLLEEA; listed as Homo sapiens) [compound 87] | +++ (≥50 = +++) | – | – | – |
| 285 (MLLDTVQKV; listed as Homo sapiens) [compound 285] | +++ (≥50 = +++) | – | – | – |
| 216 (ALSTVTPRI; listed as Homo sapiens) [compound 216] | ++ (≥20% = ++) | – | – | – |
| 31 (GLLETTGLLAT; listed as Homo sapiens) [compound 31] | +++ (≥50 = +++) | – | – | – |
| 64 (SLYAGSNNQV; listed as Homo sapiens) [compound 64] | ++ (≥20% = ++) | – | – | – |
| 67 (FLIENLLAA; listed as Homo sapiens) [compound 67] | +++ (≥50 = +++) | – | – | – |
| 68 (QLMNLIRSV; listed as Homo sapiens) [compound 68] | +++ (≥50 = +++) | – | – | – |

From patent publication US10081665B2, “Peptides and combination of peptides for use in immunotherapy against various tumors” (immatics biotechnologies GmbH, priority 2015, dated 2018)
